Results reported in patent publication US20240010721A1 (HARBOUR BIOMED SHANGHAI, published 2024).

Legend:
[1] = target: T1, human ROR1 (hROR1) on cells (human, UniProt Q01973 30-937); assay: FACS, A549 cells
T1 construct: whole, on cells; the cell line is named under assay; also called HEK293T-hROR1; 293T-hROR1
Protocol: (§1) The binding properties were characterized by FACS. The recombinant antibodies obtained above were serially diluted to 9 different concentrations and incubated for 1 h, and then determined for the binding ability with HEK293T-hROR1, CHO-K1-cynoROR1 and A549 cell lines (endogenously expressing ROR1), respectively. The secondary antibody was then incubated for 1 h. The results are shown in FIG. 4-6 and Table 7-2 below.

[2] = target: T1, human ROR1 (hROR1) on cells; assay: FACS, HEK293T-hROR1 cells
Protocol: as §1

[3] = target: T2, cynomolgus ROR1 (cynoROR1) on CHO-K1 cells (cynomolgus, UniProt A0A2K5WTX7 30-937); assay: FACS, CHO-K1-cynoROR1 cells
T2 construct: whole, on cells; also called CHO-K1-cynoROR1; CHO-K1-cyROR1
Protocol: as §1

hROR2ECD-his [4] = target: T3, hROR2ECD-his (human, UniProt Q01974 34-403); assay: ELISA, plate coated with hROR2 ECD-his
T3 construct: extracellular domain; bought, Acrobiosystems R02-H52E5; also called huROR2-his
Protocol: (§2) Screening by ELISA assay: 96-well plates (Corning 9018) were coated with 1 μg/mL hROR1 ECD-his/hROR2 ECD-his/mROR1 ECD-his proteins prepared with PBS in Example 1a above and incubated at 4° C. overnight. The liquid was then discarded, and the plates were washed 3 times with PBST, blocked with 5% milk for 2 h at room temperature, and washed 3 times with PBST. The taken supernatant was added at 100 μL/well, and the plates were incubated at room temperature for 1 h, followed by washing 3 times with PBST. 100 μL/well of secondary antibody (Sigma, Cat#: A8592) was added, the plates were incubated at room temperature for 1 h, and then washed. TMB was then added to the plates at 100 μL/well and incubated for 15 min at room temperature. Thereafter, the reaction was terminated and data were read.
(§3) a. Results of ELISA assay (the ELISA assay was performed according to the same procedures as in Example 2c, except that the added samples were recombinant antibodies and the secondary antibody was a-Fc (Genscript, Cat#: A01854))
The corresponding values in the table are the measured median fluorescence intensity (MFI).

Human ROR1-ECD-his = target: T4, Human ROR1-ECD-his (human, UniProt Q01973 30-406); assay: ELISA, plate coated with hROR1 ECD-his
T4 construct: extracellular domain; bought, Acrobiosystems RO1-H522y; also called hROR1-ECD-his; hROR1 ECD-his
Protocol: as §2, §3

hROR2ECD-his [5] = target: T3, hROR2ECD-his; assay: ELISA, plate coated with hROR2 ECD-his; remark: listed apart in the source
Protocol: as §2, §3

[6] = target: T5, ROR1 (antigen of the KD determination and of the Octet dissociation measurement) (UniProt Q01973 30-403, limits assumed); assay: method not stated (conventional procedures)
[7] = target: T1, human ROR1 (hROR1) on cells; assay: FACS, HEK293T-hROR1 cells; cytometer saturated
Protocol: as §1

[8] = target: T1, human ROR1 (hROR1) on cells; assay: FACS, Panc-1 cells
[9] = target: T1, human ROR1 (hROR1) on cells; assay: FACS, HEK293T-hROR1 cells; remark: listed apart in the source
[10] = target: T5, ROR1 (antigen of the KD determination …); assay: Octet, antigen form not stated

T3 sequence (Q01974 34-403): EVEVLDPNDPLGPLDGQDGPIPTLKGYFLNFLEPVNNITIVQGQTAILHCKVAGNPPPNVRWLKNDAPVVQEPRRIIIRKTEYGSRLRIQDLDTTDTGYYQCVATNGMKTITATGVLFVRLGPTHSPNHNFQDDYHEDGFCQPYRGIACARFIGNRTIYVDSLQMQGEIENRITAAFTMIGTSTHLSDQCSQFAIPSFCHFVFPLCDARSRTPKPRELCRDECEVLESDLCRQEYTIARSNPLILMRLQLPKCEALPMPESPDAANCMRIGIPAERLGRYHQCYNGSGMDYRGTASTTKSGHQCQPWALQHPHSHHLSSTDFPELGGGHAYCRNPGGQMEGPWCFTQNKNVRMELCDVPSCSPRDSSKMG
T5 sequence (Q01973 30-403 limits assumed): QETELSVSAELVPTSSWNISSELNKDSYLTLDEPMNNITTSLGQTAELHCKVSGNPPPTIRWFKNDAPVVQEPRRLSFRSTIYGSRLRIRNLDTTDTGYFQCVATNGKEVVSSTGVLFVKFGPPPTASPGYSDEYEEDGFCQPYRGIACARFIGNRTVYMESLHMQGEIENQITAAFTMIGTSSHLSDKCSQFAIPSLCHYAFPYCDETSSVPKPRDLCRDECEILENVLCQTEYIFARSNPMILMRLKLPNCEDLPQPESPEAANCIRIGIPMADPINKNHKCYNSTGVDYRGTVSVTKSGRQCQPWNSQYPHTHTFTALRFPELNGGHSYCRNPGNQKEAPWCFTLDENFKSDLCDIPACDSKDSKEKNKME
T1 sequence (Q01973 30-937): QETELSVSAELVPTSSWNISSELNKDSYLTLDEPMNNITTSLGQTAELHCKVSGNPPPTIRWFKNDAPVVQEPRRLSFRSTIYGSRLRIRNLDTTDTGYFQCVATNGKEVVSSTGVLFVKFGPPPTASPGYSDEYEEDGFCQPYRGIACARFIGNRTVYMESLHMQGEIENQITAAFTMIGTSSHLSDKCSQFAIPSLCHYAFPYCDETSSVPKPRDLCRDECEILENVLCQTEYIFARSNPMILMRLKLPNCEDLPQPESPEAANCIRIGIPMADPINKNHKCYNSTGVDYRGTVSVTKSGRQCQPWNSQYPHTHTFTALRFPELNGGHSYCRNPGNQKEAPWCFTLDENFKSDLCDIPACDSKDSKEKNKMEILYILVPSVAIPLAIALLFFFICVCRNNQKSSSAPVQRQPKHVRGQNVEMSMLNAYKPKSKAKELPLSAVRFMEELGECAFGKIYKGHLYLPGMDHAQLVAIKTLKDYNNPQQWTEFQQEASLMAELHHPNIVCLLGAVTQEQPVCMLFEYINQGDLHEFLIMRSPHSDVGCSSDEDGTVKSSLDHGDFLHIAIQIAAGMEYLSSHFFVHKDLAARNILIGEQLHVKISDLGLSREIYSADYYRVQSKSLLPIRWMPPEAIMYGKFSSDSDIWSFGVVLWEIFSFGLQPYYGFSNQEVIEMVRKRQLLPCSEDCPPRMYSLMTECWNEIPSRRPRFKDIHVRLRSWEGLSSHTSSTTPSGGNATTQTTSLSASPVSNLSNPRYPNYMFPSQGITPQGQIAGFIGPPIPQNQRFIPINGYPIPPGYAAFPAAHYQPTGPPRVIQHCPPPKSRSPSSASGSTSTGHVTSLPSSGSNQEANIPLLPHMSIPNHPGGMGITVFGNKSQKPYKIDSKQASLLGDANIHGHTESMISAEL
T4 sequence (Q01973 30-406): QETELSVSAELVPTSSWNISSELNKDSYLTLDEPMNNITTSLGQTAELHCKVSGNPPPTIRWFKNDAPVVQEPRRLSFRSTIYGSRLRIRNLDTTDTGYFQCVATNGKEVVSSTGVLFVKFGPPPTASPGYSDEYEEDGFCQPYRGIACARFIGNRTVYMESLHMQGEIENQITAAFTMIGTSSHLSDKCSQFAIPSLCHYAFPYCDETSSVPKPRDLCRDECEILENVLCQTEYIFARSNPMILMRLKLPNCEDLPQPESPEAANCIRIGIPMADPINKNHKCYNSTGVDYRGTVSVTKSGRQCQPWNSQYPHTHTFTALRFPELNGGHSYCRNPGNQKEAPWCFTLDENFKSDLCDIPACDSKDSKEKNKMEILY

Binder	MAX(MFI) [1]	fold lower EC50 than reference PR000374 [2]	MAX(MFI) [3]	binding result (hROR2ECD-his [4])	ELISA signal (called MFI) (Human ROR1-ECD-his)	ELISA signal (called MFI) (hROR2ECD-his [5])	Kd [6]	koff [6]	kon [6]	MAX(MFI) [7]	MFI [8]	MFI [9]	Response [10]	koff [10]
PR001360 (antibody, human IgG1, kappa, V domains shown, fully human IgG1, kappa) VH: QVQLVESGGGVVQPGRSLRLSCAASGFTFSSYGMHWVRQAPGKGLEWVAVIWYDGSDKDSVDSVKGRFTISRDDSKNTLYLQMNSLRAEDTAVYYCAREQARSFDLWGRGTLVTVSS VL: DIQMTQSPSTLSASVGDRVTITCRASQTINNWLAWYQQKPGKAPKLLIYKASSLESGVPSRFSGSGSGTEFTLTISSLQPDDFATYYCQQYNIYSPMYTFGQGTKVEIKR	4050 MFI	10 fold	25000 MFI	no binding	2.44	0.0315	0.804 nM	0.000248 s⁻¹	309000 M⁻¹ s⁻¹	262000 MFI	–	–	–	–
PR001363 (antibody, human IgG1, kappa, V domains shown, fully human IgG1, kappa) VH: QVQLVESGGGVVQPGRSLRLSCAASGFSFSSYAMHWVRQAPGRGLEWVAVIWYDGGDEDSIDSVKGRFTISRDDSKNTLYLQMNSLRAEDTAVYYCAREQARSFDLWGRGTLVTVSS VL: DVVMTQSPSTLSASVGDRVTITCRASQTINNWLAWYQQKPGKAPKLLIYKASSLESGVPSRFSGSGSGTEFTLTISSLQPDDFATYYCQQYNSYSPMYTFGQGTKVEIKR	3700 MFI	10 fold	17200 MFI	no binding	2.45	0.0305	2.9 nM	0.00101 s⁻¹	348000 M⁻¹ s⁻¹	262000 MFI	–	–	–	–
PR002582 (antibody, human IgG1, kappa, V domains shown, PR001369 variant: VH D54E; hIgG1; also called anti-ROR1 1015M3-H10(H: D54E) hIgG1) VH: QVQLVESGGGVVQPGRSLRLSCAASGFTFSNYGIHWVRQAPGKGLEWVAIMWYEGSNTDYADSVKGRFTISRDTSKNTLFLQMNSLRAEDTAVYYCAREQARSFDLWGRGTLVTVSS VL: DIVMTQSPSTLSASVGDRVTITCRASQTINNWLAWYQQKPGKAPKLLIYKASSLESGVPSRFSGSGSGTEFTLTISSLQPDDFATYYCQQYNSYSPMYTFGQGTKVEIKR	–	–	–	–	–	–	–	–	–	–	1990 MFI	32300 MFI	0.798	0.000193 s⁻¹
PR002585 (antibody, human IgG1, kappa, V domains shown, PR001369 variant: VH G55A; hIgG1; also called anti-ROR1 1015M3-H10(H: G55A) hIgG1) VH: QVQLVESGGGVVQPGRSLRLSCAASGFTFSNYGIHWVRQAPGKGLEWVAIMWYDASNTDYADSVKGRFTISRDTSKNTLFLQMNSLRAEDTAVYYCAREQARSFDLWGRGTLVTVSS VL: DIVMTQSPSTLSASVGDRVTITCRASQTINNWLAWYQQKPGKAPKLLIYKASSLESGVPSRFSGSGSGTEFTLTISSLQPDDFATYYCQQYNSYSPMYTFGQGTKVEIKR	–	–	–	–	–	–	–	–	–	–	2610 MFI	32700 MFI	0.771	0.000389 s⁻¹
PR002581 (antibody, human IgG1, kappa, V domains shown, PR001369 variant: VL S93A; hIgG1; also called anti-ROR1 1015M3-H10(L: S93A) hIgG1) VH: QVQLVESGGGVVQPGRSLRLSCAASGFTFSNYGIHWVRQAPGKGLEWVAIMWYDGSNTDYADSVKGRFTISRDTSKNTLFLQMNSLRAEDTAVYYCAREQARSFDLWGRGTLVTVSS VL: DIVMTQSPSTLSASVGDRVTITCRASQTINNWLAWYQQKPGKAPKLLIYKASSLESGVPSRFSGSGSGTEFTLTISSLQPDDFATYYCQQYNAYSPMYTFGQGTKVEIKR	–	–	–	–	–	–	–	–	–	–	3180 MFI	42300 MFI	0.974	6.73e-05 s⁻¹
PR002583 (antibody, human IgG1, kappa, V domains shown, PR001369 variant: VH D54E, VL N92Q; hIgG1; also called anti-ROR1 1015M3-H10(H: D54E; L: N92Q) hIgG1) VH: QVQLVESGGGVVQPGRSLRLSCAASGFTFSNYGIHWVRQAPGKGLEWVAIMWYEGSNTDYADSVKGRFTISRDTSKNTLFLQMNSLRAEDTAVYYCAREQARSFDLWGRGTLVTVSS VL: DIVMTQSPSTLSASVGDRVTITCRASQTINNWLAWYQQKPGKAPKLLIYKASSLESGVPSRFSGSGSGTEFTLTISSLQPDDFATYYCQQYQSYSPMYTFGQGTKVEIKR	–	–	–	–	–	–	–	–	–	–	3950 MFI	25300 MFI	0.672	0.000223 s⁻¹
PR002579 (antibody, human IgG1, kappa, V domains shown, PR001364 variant: VH G55A, VL S93A; hIgG1; also called anti-ROR1 1015M3-D8(H: G55A; L: S93A) hIgG1) VH: EVQLLESGGGVVQPGRSLRLSCAASGFTFSSFGMHWVRQAPGKGLEWVAVIWYDASDKDYADSVKGRFTISRDTSKNTLYLQMNSLRAEDTAVYYCAREQARSFDLWGRGTLVTVSS VL: DIVMTQSPSTLSASVGDRVTITCRASQTINNWLAWYQQKPGKAPKLLIYKASSLESGVPSRFSGSGSGTEFTLTISSLQPDDFATYYCQQYNAYSPMYTFGQGTKVEIKR	–	–	–	–	–	–	–	–	–	–	7050 MFI	43100 MFI	0.783	0.000199 s⁻¹
PR002586 (antibody, human IgG1, kappa, V domains shown, PR001369 variant: VH G55A, VL N92Q; hIgG1; also called anti-ROR1 1015M3-H10(H: G55A; L: N92Q) hIgG1) VH: QVQLVESGGGVVQPGRSLRLSCAASGFTFSNYGIHWVRQAPGKGLEWVAIMWYDASNTDYADSVKGRFTISRDTSKNTLFLQMNSLRAEDTAVYYCAREQARSFDLWGRGTLVTVSS VL: DIVMTQSPSTLSASVGDRVTITCRASQTINNWLAWYQQKPGKAPKLLIYKASSLESGVPSRFSGSGSGTEFTLTISSLQPDDFATYYCQQYQSYSPMYTFGQGTKVEIKR	–	–	–	–	–	–	–	–	–	–	5490 MFI	41900 MFI	0.754	0.000266 s⁻¹
PR002587 (antibody, human IgG1, kappa, V domains shown, PR001369 variant: VH G55A, VL S93A; hIgG1; also called anti-ROR1 1015M3-H10(H: G55A; L: S93A) hIgG1) VH: QVQLVESGGGVVQPGRSLRLSCAASGFTFSNYGIHWVRQAPGKGLEWVAIMWYDASNTDYADSVKGRFTISRDTSKNTLFLQMNSLRAEDTAVYYCAREQARSFDLWGRGTLVTVSS VL: DIVMTQSPSTLSASVGDRVTITCRASQTINNWLAWYQQKPGKAPKLLIYKASSLESGVPSRFSGSGSGTEFTLTISSLQPDDFATYYCQQYNAYSPMYTFGQGTKVEIKR	–	–	–	–	–	–	–	–	–	–	2950 MFI	41500 MFI	0.756	0.000394 s⁻¹
PR002584 (antibody, human IgG1, kappa, V domains shown, PR001369 variant: VH D54E, VL S93A; hIgG1; also called anti-ROR1 1015M3-H10(H: D54E; L: S93A) hIgG1) VH: QVQLVESGGGVVQPGRSLRLSCAASGFTFSNYGIHWVRQAPGKGLEWVAIMWYEGSNTDYADSVKGRFTISRDTSKNTLFLQMNSLRAEDTAVYYCAREQARSFDLWGRGTLVTVSS VL: DIVMTQSPSTLSASVGDRVTITCRASQTINNWLAWYQQKPGKAPKLLIYKASSLESGVPSRFSGSGSGTEFTLTISSLQPDDFATYYCQQYNAYSPMYTFGQGTKVEIKR	–	–	–	–	–	–	–	–	–	–	3180 MFI	36600 MFI	0.69	0.000301 s⁻¹
PR002580 (antibody, human IgG1, kappa, V domains shown, PR001369 variant: VL N92Q; hIgG1; also called anti-ROR1 1015M3-H10(L: N92Q) hIgG1) VH: QVQLVESGGGVVQPGRSLRLSCAASGFTFSNYGIHWVRQAPGKGLEWVAIMWYDGSNTDYADSVKGRFTISRDTSKNTLFLQMNSLRAEDTAVYYCAREQARSFDLWGRGTLVTVSS VL: DIVMTQSPSTLSASVGDRVTITCRASQTINNWLAWYQQKPGKAPKLLIYKASSLESGVPSRFSGSGSGTEFTLTISSLQPDDFATYYCQQYQSYSPMYTFGQGTKVEIKR	–	–	–	–	–	–	–	–	–	–	3720 MFI	42500 MFI	0.985	4.75e-05 s⁻¹
